Experimental data taken from PMC3761943 (Cell, 2013).

T1: kinesin-4ΔN (human kinesin-4, aa 733-1232) (human, UniProt O95239 733-1232)
T1 sequence (looked up): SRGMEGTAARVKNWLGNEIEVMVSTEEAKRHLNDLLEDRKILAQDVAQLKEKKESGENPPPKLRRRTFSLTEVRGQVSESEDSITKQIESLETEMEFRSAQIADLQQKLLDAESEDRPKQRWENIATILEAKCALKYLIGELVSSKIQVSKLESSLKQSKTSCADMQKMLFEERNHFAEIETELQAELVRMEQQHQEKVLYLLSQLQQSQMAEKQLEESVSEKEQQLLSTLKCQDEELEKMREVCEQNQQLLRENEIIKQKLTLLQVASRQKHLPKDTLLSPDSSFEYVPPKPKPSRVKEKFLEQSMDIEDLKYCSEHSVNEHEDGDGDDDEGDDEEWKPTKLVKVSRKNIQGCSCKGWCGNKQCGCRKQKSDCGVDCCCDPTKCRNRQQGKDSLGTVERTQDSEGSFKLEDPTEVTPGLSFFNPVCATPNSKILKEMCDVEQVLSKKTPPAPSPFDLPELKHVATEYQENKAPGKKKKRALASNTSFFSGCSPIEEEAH

T2: kinesin-4 (human full-length, unlabeled) (human, UniProt O95239 1-1232)
T2 sequence (looked up): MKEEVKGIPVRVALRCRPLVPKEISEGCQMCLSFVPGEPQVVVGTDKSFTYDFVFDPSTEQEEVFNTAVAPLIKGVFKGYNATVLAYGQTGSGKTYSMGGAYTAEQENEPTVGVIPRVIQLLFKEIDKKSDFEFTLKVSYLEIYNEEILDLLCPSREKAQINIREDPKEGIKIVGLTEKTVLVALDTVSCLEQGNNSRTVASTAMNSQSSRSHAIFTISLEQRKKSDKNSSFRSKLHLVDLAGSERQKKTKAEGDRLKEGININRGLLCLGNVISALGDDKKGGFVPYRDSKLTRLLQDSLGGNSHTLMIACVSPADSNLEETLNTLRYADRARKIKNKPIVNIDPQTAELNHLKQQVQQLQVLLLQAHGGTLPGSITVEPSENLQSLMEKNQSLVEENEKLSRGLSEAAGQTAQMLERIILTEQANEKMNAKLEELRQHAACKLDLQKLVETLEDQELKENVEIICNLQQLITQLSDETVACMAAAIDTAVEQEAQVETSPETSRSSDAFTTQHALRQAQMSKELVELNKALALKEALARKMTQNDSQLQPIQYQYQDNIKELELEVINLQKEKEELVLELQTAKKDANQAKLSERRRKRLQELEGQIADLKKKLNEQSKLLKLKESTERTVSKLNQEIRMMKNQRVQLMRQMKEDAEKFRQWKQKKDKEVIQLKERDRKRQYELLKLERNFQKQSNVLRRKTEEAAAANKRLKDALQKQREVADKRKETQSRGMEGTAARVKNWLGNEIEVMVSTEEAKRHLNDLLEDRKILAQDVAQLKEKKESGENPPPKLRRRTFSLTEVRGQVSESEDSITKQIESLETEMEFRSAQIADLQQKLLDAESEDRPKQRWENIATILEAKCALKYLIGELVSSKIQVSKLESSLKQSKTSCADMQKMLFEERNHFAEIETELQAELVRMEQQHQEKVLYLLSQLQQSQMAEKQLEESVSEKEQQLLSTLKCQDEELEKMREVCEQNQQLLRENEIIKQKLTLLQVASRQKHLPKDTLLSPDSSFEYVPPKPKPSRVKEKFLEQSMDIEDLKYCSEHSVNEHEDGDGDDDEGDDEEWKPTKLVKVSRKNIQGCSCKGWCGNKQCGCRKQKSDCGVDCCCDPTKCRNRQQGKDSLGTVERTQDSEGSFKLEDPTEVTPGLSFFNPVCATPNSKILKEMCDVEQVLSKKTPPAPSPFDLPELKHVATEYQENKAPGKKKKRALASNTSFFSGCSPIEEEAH

T3: kinesin-4-GFP (human full-length kinesin-4, GFP-labeled) (human), O95239
T3 chain: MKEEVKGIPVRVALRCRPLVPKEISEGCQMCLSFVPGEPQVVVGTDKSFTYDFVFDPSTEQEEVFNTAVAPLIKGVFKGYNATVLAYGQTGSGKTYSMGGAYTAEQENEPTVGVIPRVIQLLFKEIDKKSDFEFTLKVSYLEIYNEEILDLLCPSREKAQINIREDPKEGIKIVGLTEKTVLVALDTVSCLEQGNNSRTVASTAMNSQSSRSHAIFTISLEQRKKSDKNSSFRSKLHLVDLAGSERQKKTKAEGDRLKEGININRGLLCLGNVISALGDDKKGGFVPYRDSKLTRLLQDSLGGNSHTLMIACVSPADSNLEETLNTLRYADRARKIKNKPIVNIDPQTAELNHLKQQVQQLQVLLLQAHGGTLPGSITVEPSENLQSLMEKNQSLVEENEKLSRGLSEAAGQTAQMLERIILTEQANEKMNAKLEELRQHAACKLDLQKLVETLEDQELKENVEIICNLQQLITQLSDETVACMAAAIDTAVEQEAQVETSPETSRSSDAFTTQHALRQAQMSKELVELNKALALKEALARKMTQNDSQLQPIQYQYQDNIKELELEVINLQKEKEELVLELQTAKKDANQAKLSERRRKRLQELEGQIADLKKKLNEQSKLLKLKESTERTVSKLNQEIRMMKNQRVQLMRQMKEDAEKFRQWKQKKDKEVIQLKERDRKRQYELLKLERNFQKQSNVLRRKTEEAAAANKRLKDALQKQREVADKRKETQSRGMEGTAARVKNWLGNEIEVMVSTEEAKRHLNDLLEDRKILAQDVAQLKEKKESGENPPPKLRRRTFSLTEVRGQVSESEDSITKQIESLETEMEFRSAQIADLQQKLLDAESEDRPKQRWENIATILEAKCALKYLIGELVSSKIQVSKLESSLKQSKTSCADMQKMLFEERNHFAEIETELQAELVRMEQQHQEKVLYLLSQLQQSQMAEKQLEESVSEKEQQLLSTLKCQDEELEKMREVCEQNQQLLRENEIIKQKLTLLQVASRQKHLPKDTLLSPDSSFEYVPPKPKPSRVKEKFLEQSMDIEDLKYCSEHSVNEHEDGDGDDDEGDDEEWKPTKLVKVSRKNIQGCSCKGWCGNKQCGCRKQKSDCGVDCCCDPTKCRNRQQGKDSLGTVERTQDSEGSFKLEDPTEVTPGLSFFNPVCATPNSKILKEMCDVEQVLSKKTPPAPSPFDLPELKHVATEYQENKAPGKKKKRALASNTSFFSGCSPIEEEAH


Columns and labels:
[1] = molecular target: T1, kinesin-4ΔN (human kinesin-4, aa …); assay: pull-down
[2] = molecular target: T2, kinesin-4 (human full-length, unlabeled); assay: TIRF microscopy, end-tag formation on immobilized microtubules
[3] = molecular target: T3, kinesin-4-GFP (human full-length …); assay: single-molecule fluorescence intensity analysis; conditions: remark: other sources report otherwise

Binder | Kd [1] [nM] | other results
PRC1NSΔC2 (human PRC1, aa 1-117) (domain or fragment, UniProt O43663 1-117, looked up) MRRSEVLAEESIVCLQKALNHLREIWELIGIPEDQRLQRTEVVKKHIKELLDMMIAEEESLKERLIKSISVCQKELNTLCSELHVEPFQEEGETTILQLEKDLRTQVELMRKQKKER | 2300 ± 600 | 
PRC1NSΔC3 (human PRC1, aa 1-168) (domain or fragment, UniProt O43663 1-168, looked up) MRRSEVLAEESIVCLQKALNHLREIWELIGIPEDQRLQRTEVVKKHIKELLDMMIAEEESLKERLIKSISVCQKELNTLCSELHVEPFQEEGETTILQLEKDLRTQVELMRKQKKERKQELKLLQEQDQELCEILCMPHYDIDSASVPSLEELNQFRQHVTTLRETKA | 1200 ± 400 | 
GFP-PRC1 (human full-length PRC1, aa 1-620, GFP-labeled) (natural protein, UniProt O43663 1-620, looked up) MRRSEVLAEESIVCLQKALNHLREIWELIGIPEDQRLQRTEVVKKHIKELLDMMIAEEESLKERLIKSISVCQKELNTLCSELHVEPFQEEGETTILQLEKDLRTQVELMRKQKKERKQELKLLQEQDQELCEILCMPHYDIDSASVPSLEELNQFRQHVTTLRETKASRREEFVSIKRQIILCMEALDHTPDTSFERDVVCEDEDAFCLSLENIATLQKLLRQLEMQKSQNEAVCEGLRTQIRELWDRLQIPEEEREAVATIMSGSKAKVRKALQLEVDRLEELKMQNMKKVIEAIRVELVQYWDQCFYSQEQRQAFAPFCAEDYTESLLQLHDAEIVRLKNYYEVHKELFEGVQKWEETWRLFLEFERKASDPNRFTNRGGNLLKEEKQRAKLQKMLPKLEEELKARIELWEQEHSKAFMVNGQKFMEYVAEQWEMHRLEKERAKQERQLKNKKQTETEMLYGSAPRTPSKRRGLAPNTPGKARKLNTTTMSNATANSSIRPIFGGTVYHSPVSRLPPSGSKPVAASTCSGKKTPRTGRHGANKENLELNGSILSGGYPGSAPLQRNFSINSVASTYSEFAKDPSLSDSSTVGLQRELSKASKSDATSGILNSTNIQS |  | binding result [2]: binds
PRC1NSΔC4 (human PRC1, aa 1-231) (domain or fragment, UniProt O43663 1-231, looked up) MRRSEVLAEESIVCLQKALNHLREIWELIGIPEDQRLQRTEVVKKHIKELLDMMIAEEESLKERLIKSISVCQKELNTLCSELHVEPFQEEGETTILQLEKDLRTQVELMRKQKKERKQELKLLQEQDQELCEILCMPHYDIDSASVPSLEELNQFRQHVTTLRETKASRREEFVSIKRQIILCMEALDHTPDTSFERDVVCEDEDAFCLSLENIATLQKLLRQLEMQKSQ | 300 ± 40 | 
kinesin-4-GFP (human full-length kinesin-4, GFP-labeled), O95239 1-1232 (natural protein) MKEEVKGIPVRVALRCRPLVPKEISEGCQMCLSFVPGEPQVVVGTDKSFTYDFVFDPSTEQEEVFNTAVAPLIKGVFKGYNATVLAYGQTGSGKTYSMGGAYTAEQENEPTVGVIPRVIQLLFKEIDKKSDFEFTLKVSYLEIYNEEILDLLCPSREKAQINIREDPKEGIKIVGLTEKTVLVALDTVSCLEQGNNSRTVASTAMNSQSSRSHAIFTISLEQRKKSDKNSSFRSKLHLVDLAGSERQKKTKAEGDRLKEGININRGLLCLGNVISALGDDKKGGFVPYRDSKLTRLLQDSLGGNSHTLMIACVSPADSNLEETLNTLRYADRARKIKNKPIVNIDPQTAELNHLKQQVQQLQVLLLQAHGGTLPGSITVEPSENLQSLMEKNQSLVEENEKLSRGLSEAAGQTAQMLERIILTEQANEKMNAKLEELRQHAACKLDLQKLVETLEDQELKENVEIICNLQQLITQLSDETVACMAAAIDTAVEQEAQVETSPETSRSSDAFTTQHALRQAQMSKELVELNKALALKEALARKMTQNDSQLQPIQYQYQDNIKELELEVINLQKEKEELVLELQTAKKDANQAKLSERRRKRLQELEGQIADLKKKLNEQSKLLKLKESTERTVSKLNQEIRMMKNQRVQLMRQMKEDAEKFRQWKQKKDKEVIQLKERDRKRQYELLKLERNFQKQSNVLRRKTEEAAAANKRLKDALQKQREVADKRKETQSRGMEGTAARVKNWLGNEIEVMVSTEEAKRHLNDLLEDRKILAQDVAQLKEKKESGENPPPKLRRRTFSLTEVRGQVSESEDSITKQIESLETEMEFRSAQIADLQQKLLDAESEDRPKQRWENIATILEAKCALKYLIGELVSSKIQVSKLESSLKQSKTSCADMQKMLFEERNHFAEIETELQAELVRMEQQHQEKVLYLLSQLQQSQMAEKQLEESVSEKEQQLLSTLKCQDEELEKMREVCEQNQQLLRENEIIKQKLTLLQVASRQKHLPKDTLLSPDSSFEYVPPKPKPSRVKEKFLEQSMDIEDLKYCSEHSVNEHEDGDGDDDEGDDEEWKPTKLVKVSRKNIQGCSCKGWCGNKQCGCRKQKSDCGVDCCCDPTKCRNRQQGKDSLGTVERTQDSEGSFKLEDPTEVTPGLSFFNPVCATPNSKILKEMCDVEQVLSKKTPPAPSPFDLPELKHVATEYQENKAPGKKKKRALASNTSFFSGCSPIEEEAH |  | stoichiometry N [3]: 2
PRC1NSΔC5 (human PRC1, aa 1-303) (domain or fragment, UniProt O43663 1-303, looked up) MRRSEVLAEESIVCLQKALNHLREIWELIGIPEDQRLQRTEVVKKHIKELLDMMIAEEESLKERLIKSISVCQKELNTLCSELHVEPFQEEGETTILQLEKDLRTQVELMRKQKKERKQELKLLQEQDQELCEILCMPHYDIDSASVPSLEELNQFRQHVTTLRETKASRREEFVSIKRQIILCMEALDHTPDTSFERDVVCEDEDAFCLSLENIATLQKLLRQLEMQKSQNEAVCEGLRTQIRELWDRLQIPEEEREAVATIMSGSKAKVRKALQLEVDRLEELKMQNMKKVIEAIRVELVQ | 300 ± 60 | 

Further lines, with some results ahead:

Kd [1] [nM] | Binder | other results
300 ± 30 | PRC1NSΔC (human PRC1, aa 1-486) (domain or fragment, UniProt O43663 1-486, looked up) MRRSEVLAEESIVCLQKALNHLREIWELIGIPEDQRLQRTEVVKKHIKELLDMMIAEEESLKERLIKSISVCQKELNTLCSELHVEPFQEEGETTILQLEKDLRTQVELMRKQKKERKQELKLLQEQDQELCEILCMPHYDIDSASVPSLEELNQFRQHVTTLRETKASRREEFVSIKRQIILCMEALDHTPDTSFERDVVCEDEDAFCLSLENIATLQKLLRQLEMQKSQNEAVCEGLRTQIRELWDRLQIPEEEREAVATIMSGSKAKVRKALQLEVDRLEELKMQNMKKVIEAIRVELVQYWDQCFYSQEQRQAFAPFCAEDYTESLLQLHDAEIVRLKNYYEVHKELFEGVQKWEETWRLFLEFERKASDPNRFTNRGGNLLKEEKQRAKLQKMLPKLEEELKARIELWEQEHSKAFMVNGQKFMEYVAEQWEMHRLEKERAKQERQLKNKKQTETEMLYGSAPRTPSKRRGLAPNTPGKAR | 
1600 ± 110 | PRC1ΔN2SΔC (human PRC1, aa 41-486) (domain or fragment, UniProt O43663 41-486, looked up) EVVKKHIKELLDMMIAEEESLKERLIKSISVCQKELNTLCSELHVEPFQEEGETTILQLEKDLRTQVELMRKQKKERKQELKLLQEQDQELCEILCMPHYDIDSASVPSLEELNQFRQHVTTLRETKASRREEFVSIKRQIILCMEALDHTPDTSFERDVVCEDEDAFCLSLENIATLQKLLRQLEMQKSQNEAVCEGLRTQIRELWDRLQIPEEEREAVATIMSGSKAKVRKALQLEVDRLEELKMQNMKKVIEAIRVELVQYWDQCFYSQEQRQAFAPFCAEDYTESLLQLHDAEIVRLKNYYEVHKELFEGVQKWEETWRLFLEFERKASDPNRFTNRGGNLLKEEKQRAKLQKMLPKLEEELKARIELWEQEHSKAFMVNGQKFMEYVAEQWEMHRLEKERAKQERQLKNKKQTETEMLYGSAPRTPSKRRGLAPNTPGKAR | 
